Laboratory results: the RNAGym collection of RNA variant scans (doi:10.1073/pnas.2313332121)

B1: TPR t1 (parent)
chain: GACCAAUCUGCCCUCAGAGCUCGAGAACAUCUUCGGAUGCAGAGGAGGCAGGCUUCGGUGGCGCGAUAGCGCCAACGUCCUCAACCUCCAAUGCAUCCCACCACAUGAUGAUGCCUGAAGAGCCUUGGUUUUUUG

Variants of: B1
Experiment: polymerase ribozyme fitness, log enrichment relative to wild type (log ratio); higher = more active; in vitro selection for triplet polymerase activity
Summary of the method: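 Input and output libraries were sequenced on Illumina after a single in vitro selection round, run in triplicate on PCR-built, transcribed mutant libraries of each subunit of a heterodimeric triplet polymerase ribozyme. Selection annealed libraries to a biotinylated primer, the partner subunit and triplets, incubated them frozen at −7 °C, then gel-excised extended constructs for streptavidin-bead capture and RT-PCR. Genotypes with ≥10 input reads and ≥1 read per output were kept. Fitness is the logarithm, taken in base 2, of genotype enrichment divided by wild-type enrichment, using inverse-variance-weighted replicate averages.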

Variant | polymerase ribozyme fitness (log ratio)
A46U G57C C79U C85A G120U | -3.83
A46U G52U | -2.32
A46C G69A | -2.87
A46U U78C | -1.07
G47A G128A | -2.43
G47C C56U C73U A105U | -4.05
G47A G48A C53G G69U U132A | -0.097
G47A A90G A103C G120C | -4.22
A46U U132A | -1.18
G47A C104U | -1.4
A46G C86A G120C | -0.884
G47A U106A U133A | -1.13
A46U A74U C82A | -1.61
G47A G51A U130A | -4.79
A46U C73A | -1.49
G47A U81G C82U C86G | -1.44
A46G C72U C73G G117C | -4.79
G47A G57C A121U G135U | 1.05
A46G A121U U126A | 0.577
G47A C94G C101U | -2.16
G47C C82U C114A | -2.65

Variant | polymerase ribozyme fitness (log ratio)
A46U G48U | -2.29
A46G G58U G69A G110A | -4.68
G47A C64U C98U | -2.79
G47A G48C G52U C62G C79U | -5.83
A46U C73G A74G U96A | -4.63
G47A C72U A121C U129A | 0.0942
A46U C70A G120U | -1.59
G47A C53A C97A A119G C123A | -4.34
A46U C73U G110A | -2.67
G47A C49A G60C G128C | -4.7
G47A G58C G71U C79U U130C | -0.309
A46U C62G G110A | -5.8
A46U G63A C86U | -2.45
G47A U87A | -0.715
G47C G77U C88A C97U G113C G117C | -6.98
A46U U81C A90G C114U | -3.58
A46U C49U C72A | 0.459
A46U G61C C79U | -1.59
A46U G60C C114A | -2.44
A46C G69C U81C U112G | -4.07
G47A G71A | -2.02

Variant | polymerase ribozyme fitness (log ratio)
G47A G71U | -0.472
A46U C70A | -2.18
A46U C70U | -1.31
G47C A90U G128C | -5.03
A46U C82A C86U G110U U131A | -4.27
G47A U87A U96A | -2.62
A46U C56U C72G C123G | -3.53
G47A A50U G61U | -0.935
A46U C49U G63U C115U | -5.27
A46U U112G | -1.08
G47A G60A C124G | 0.279
G47A C72G G113U G122A G127U | -4.96
G47C C73U C102U G127U | -5.08
A46U G93A | -1.93
A46C U125A | -1.48
G47C C98U C124G | -0.238
G47A U96A U126C | -3.31
G47A U55G C70A C82U | -1.41
A46G G63C | -1.22
A46U U78C C124A | 0.325
A46G C56G | 0.084

Variant | polymerase ribozyme fitness (log ratio)
A46G C56A | -0.525
A46G C56U | -0.0715
G47A | -0.989
G47C | -1.82
G47C A111C A118C | -2.36
G47A A119U | -1.02
A46U C64U | -2.1
A46U U78C C82G | -1.76
G47A G71U C104A | -2.85
A46G C53G A111G | 1.36
A46C U92C | -1.97
A46U G120A | -0.14
A46U G61U A111G | -0.291
G47A C85A G117C A121C | -5.39
A46U C101U U132C | -1.92
G47A C86A | -0.754
A46U C49U A74U C102U | -4.53
A46C U78C C101G | -2.77
A46U C72U | -1.53
A46G C86G C101A C114U | -4.69
G47C C73U | -1.61
